Data on 10 substances can be found in FireProtDB (doi:10.1016/0167-4838(95)00124-d).

For the data set the following is noted: Rattus norvegicus, pH 7.2, Absorbance, MOPS 0.1 M, reversible: Yes; for ddG of mutation (higher = less stable) / unfolding free energy: 25 °C, Urea; for Tm / change of melting temperature, mutant - wild type (higher = more stable): Thermal.

Cytochrome c, somatic H34F, P62898, sequence (P62898 whole entry H34F): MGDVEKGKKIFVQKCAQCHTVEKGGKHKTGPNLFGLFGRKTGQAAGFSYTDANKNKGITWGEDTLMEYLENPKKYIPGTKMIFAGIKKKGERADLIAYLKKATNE
Cytochrome c, somatic N53I, P62898, sequence (P62898 whole entry N53I): as the sequence (P62898 whole entry H34F) above, with F34H, N53I counted along it
Cytochrome c, somatic H27V, P62898, sequence (P62898 whole entry H27V): as the sequence (P62898 whole entry H34F) above, with H27V, F34H counted along it
Cytochrome c, somatic P31A|Y68F, P62898 P31A Y68F, sequence (P62898 whole entry P31A/Y68F): as the sequence (P62898 whole entry H34F) above, with P31A, F34H, Y68F counted along it
Cytochrome c, somatic P31A, P62898, sequence (P62898 whole entry P31A): as the sequence (P62898 whole entry H34F) above, with P31A, F34H counted along it
Cytochrome c, somatic H27V|H34F, P62898 H27V H34F, sequence (P62898 whole entry H27V/H34F): as the sequence (P62898 whole entry H34F) above, with H27V counted along it
Cytochrome c, somatic Y68F, P62898, sequence (P62898 whole entry Y68F): as the sequence (P62898 whole entry H34F) above, with F34H, Y68F counted along it
Cytochrome c, somatic P31V, P62898, sequence (P62898 whole entry P31V): as the sequence (P62898 whole entry H34F) above, with P31V, F34H counted along it
Cytochrome c, somatic wild type, P62898, sequence (P62898 whole entry): as the sequence (P62898 whole entry H34F) above, with F34H counted along it
Cytochrome c, somatic H27V|N53I, P62898 H27V N53I, sequence (P62898 whole entry H27V/N53I): as the sequence (P62898 whole entry H34F) above, with H27V, F34H, N53I counted along it

In general, Tm refers to the temperature at the midpoint of the melting transition. With Cytochrome c, somatic H27V, P62898, where the note is “structure 1I5T”, the “ddG of mutation (higher = less stable)” value was 3.78 kcal/mol; the unfolding free energy was 5.72 kcal/mol; the Tm turned out to be 50 °C; the “change of melting temperature, mutant - wild type (higher = more stable)” value (“change of melting temperature, mutant” below) is -10 °C.

With “Cytochrome c, somatic H27V|H34F, P62898 H27V H34F”, where the note is “structure 1I5T”, the “ddG of mutation (higher = less stable)” value amounted to 2.15 kcal/mol; the unfolding free energy is 7.35 kcal/mol; the Tm stood at 53 °C; the “change of melting temperature, mutant” value was -7 °C.

With “Cytochrome c, somatic H27V|N53I, P62898 H27V N53I”, under “structure 1I5T”, the “ddG of mutation (higher = less stable)” value was 1.86 kcal/mol and the unfolding free energy was 7.64 kcal/mol.

Take Cytochrome c, somatic H34F, P62898: where the note is “structure 1I5T”, the “ddG of mutation (higher = less stable)” value was -0.67 kcal/mol, the unfolding free energy amounted to 10.2 kcal/mol and the midpoint of thermal melting (Tm) was determined as 69 °C.

As to Cytochrome c, somatic N53I, P62898, for the setting “structure 1I5T”, the unfolding free energy was 6.36 kcal/mol; the Tm worked out at 80 °C; the “change of melting temperature, mutant” value is 20 °C.

Regarding Cytochrome c, somatic P31A, P62898, for the setting “structure 1I5T”, the “ddG of mutation (higher = less stable)” value was 5.74 kcal/mol; the unfolding free energy stood at 3.76 kcal/mol; the Tm is 51 °C; the “change of melting temperature, mutant” value is -9 °C.

On to “Cytochrome c, somatic P31A|Y68F, P62898 P31A Y68F”, for which, under “structure 1I5T”, the unfolding free energy worked out at 6.74 kcal/mol; the Tm was found to be 62 °C; the “change of melting temperature, mutant” value came to 2 °C.

Cytochrome c, somatic P31V, P62898: for the setting “structure 1I5T”, the Tm was 49 °C and the “change of melting temperature, mutant” value was -11 °C.

With Cytochrome c, somatic Y68F, P62898, for the setting “structure 1I5T”, the unfolding free energy turned out to be 7.19 kcal/mol; the Tm turned out to be 90 °C; the “change of melting temperature, mutant” value stood at 30 °C.

On to Cytochrome c, somatic wild type, P62898, for which the unfolding free energy was 9.5 kcal/mol and the Tm was determined as 60 °C.
